Reference: US20110182905A1 (published 2011)
“And” between values parts separate entries of the source, which are not always exact repeats. Equal values may be shown once.

Assays:
[1] = target: T1, purified hGM-CSF (Biomol #2514, expressed in E. coli) (human, UniProt P04141 18-144); experiment: own Biacore KD of EV1018 set against the 7 pM cited for MOR04357-Fab from WO2006/122797
T1 construct: also called rhGM-CSF (derived from E. coli); human recombinant GM-CSF

[2] = target: T1, purified hGM-CSF (Biomol #2514, …); experiment: Biacore, antibody on mouse anti-human chip, soluble hGM-CSF (Biomol)
Excerpt: (§1) Mouse anti-human Biacore chips (GE Healthcare) are used to immobilize each of the antibodies and soluble commercially available purified GM-CSF (Biomol) is allowed to bind. The hGM-CSF used in these experiments is the same as that used in the bioassays described below.

[3] = target: T2, rhesus GM-CSF (rhesus); experiment: Biacore, antibody on mouse anti-human chip, soluble rhesus GM-CSF
T2 construct: also called rrGM-CSF (derived from HEK cells); recombinant rhesus GM-CSF
Excerpt: as §1
The rhesus GM-CSF sequence is present in the public databases (e.g., GenBank Accession No NP_{—}001028121) and is used to design an expression clone as an Fc fusion protein. Protease cleavage sites are introduced to allow release of untagged rhesus GM-CSF protein.

[4] = target: T1, purified hGM-CSF (Biomol #2514, …); experiment: cell-based or functional assay
[5] = target: T2, rhesus GM-CSF; experiment: cell-based or functional assay
[6] = target: T3, marmoset GM-CSF (marmoset); experiment: Biacore, antibody on mouse anti-human chip, soluble marmoset GM-CSF
T3 construct: also called rmGM-CSF (derived from HEK cells); recombinant marmoset GM-CSF
Excerpt: as §1
A marmoset GM-CSF expression clone (e.g., GenBank Accession No. B0KWQ4 with Methionine at position 53 and Proline at position 109) similar to the rhesus GM-CSF expression clone described above is generated.

[7] = target: T1, purified hGM-CSF (Biomol #2514, …); experiment: cell-based or functional assay; remark: listed apart in the source
[8] = target: T4, recombinant hGM-CSF derived from E. coli (Peprotech) (human, UniProt P04141 18-144); experiment: SPR (Biacore), antibody captured on protein G, hGM-CSF injected
T4 construct: Bought protein; also called E. coli hGM-CSF (Peprotech); E. coli rhGM-CSF
T4 sequence (P04141 18-144 limits assumed): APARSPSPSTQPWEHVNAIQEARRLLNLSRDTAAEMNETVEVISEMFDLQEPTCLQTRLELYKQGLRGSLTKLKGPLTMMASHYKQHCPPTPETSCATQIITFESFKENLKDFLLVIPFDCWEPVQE
Method: (§2) To calculate affinity constants for recombinant hGM-CSF binding to anti-hGM-CSF monoclonal antibodies, surface plasmon resonance (SPR) was performed on a Biacore System™ (FIG. 2).
(§3) In the method to analyze the interaction between antibodies and antigens, the purified antibodies were captured on a sensor chip via interaction with protein G immobilized to sensor chip surface, and then recombinant antigens were injected to the sensor chip. Purified antibodies were used and recombinant hGM-CSF was used as an antigen.

[9] = target: T5, recombinant hGM-CSF derived from yeast (Leukine, Berlex) (human, UniProt P04141 18-144); experiment: as above
T5 construct: Bought protein; also called yeast hGM-CSF (Leukine); yeast rhGM-CSF
T5 sequence (P04141 18-144 limits assumed): as above
Method: as §2, §3

[10] = target: T1, purified hGM-CSF (Biomol #2514, …); experiment: cell-based or functional assay; remark: listed apart in the source
[11] = target: T2, rhesus GM-CSF; experiment: cell-based or functional assay; remark: listed apart in the source

T1 sequence (P04141 18-144 limits assumed): as above

Binder	times less binding than MOR04357 [1]	Kd [2]	Kd [3]	IC50 in U937 IL-8 secretion assay [4]	IC50 in U937 IL-8 secretion assay [5]	Kd [6]	Ratio: Reference antibody (BVD2-21C11) to antibody of interest, TF-1 assay [7]	Kd [8]	Kd [9]	IC50 in TF-1 proliferation assay [10]	IC50 in TF-1 proliferation assay [11]
EV1018 (antibody, human IgG1, lambda, also called wild-type EV1018; WT EV1018) heavy: not shown light: QSALTQETSVSGTVGQKVTLSCIGNNNNIGSHAVGWYQQISRGAPKMVLFGRSPPSGVPDRFSGSKSGTTASLIISGLQPEDEADYYCSTWDSSLSAVVFGGGTKLTVLRQPKAAPSVTLFPPSSEELQANKATLVCLISDFYPGAVTVAWKADSSPVKAGVETTTPSKQSNNKYAASSYLSLTPEQWKSHRSYSCQVTHEGSTVEKTVAPTECS	~16 fold	0.112 nM	0.381 nM	0.9 ng/ml and 6 pM	0.8 ng/ml and 5.6 pM	2.1 nM	413 ratio	0.15 nM	0.23 nM	2.3 ng/ml and 15 pM	1.7 ng/ml and 11 pM
EV1018 variant 1 (antibody, human IgG1, lambda, L234A L235A) heavy: not shown light: QSALTQETSVSGTVGQKVTLSCIGNNNNIGSHAVGWYQQISRGAPKMVLFGRSPPSGVPDRFSGSKSGTTASLIISGLQPEDEADYYCSTWDSSLSAVVFGGGTKLTVLGQPKAAPSVTLFPPSSEELQANKATLVCLISDFYPGAVTVAWKGDSSPVKAGVETTTPSKQSNNKYAASSYLSLTPEQWKSHRSYSCQVTHEGSTVEKTVAPTECS										0.032 nM	
EV1018 variant 2 (antibody, human IgG1, lambda, L234A L235A, V domains shown) VH: QVELVESGGGMVQPGMPLRLSCVASGFTFSSYGMHWVRQAPGKGLEWVALTYHHGNRKFYADSVRGRFTISRDNSKNTLYLQMTSLRAEDTAVYFCARESMGAINDNWGQGTLVIVSS VL: QSALTQETSVSGTVGQKVTLSCIGNNNNIGSHAVGWYQQISRGAPKMVLFGRSPPSGVPDRFSGSKSGTTASLIISGLQPEDEADYYCSTWDSSLSAVVFGGGTKLTVLG										0.0333 nM	
EV1019 (antibody, human IgG1, lambda, V domains shown, Fully human IgG1 lambda; also called EV1019 Batch 1; EV1019 Batch 2) VH: QAQLVESGGGVVKPGGSLRLSCISSKFTFSSHAMHWVRQAPGKGLEWVAVIWHDGSKKYYADSVKGRFSVSRDNSKNTLFLQMDSLRAEDTAVYFCGKEWVGGTCDSWGQGTLVIVSS VL: QPALTQEASVSGTVGQTVTLLCSGNSSNIGSYAVGWYQQISRGAPKIVVFGKSPASGIPDRFSGSKSGTTASLLVSGLQPEDEADYYCSTWDSRLSAVLFGGGTKLTVLR		0.152 nM	0.739 nM and 0.543 nM	4.7 ng/ml and 31.3 pM	2.4 ng/ml and 16 pM	1.4 nM		0.15 nM	0.36 nM	5.7 ng/ml and 38 pM	2.8 ng/ml and 19 pM
